Data published in patent US10563220B2, “Compositions and methods for efficient targeting of transgenes” (priority 2015, dated 2020).

Tests used:
[1] = test system: transgenic F1 hybrid maize expressing APG6 operably linked to PPO H_N10; test: PPO herbicide pre-emergence injury, maize with APG6-PPO H_N10; type: in vivo; details: 20 days after treatment
Method: (§1) Transgenic F1 hybrid maize expressing APG6 operably linked to PPO H_N10 was assessed for tolerance to different seven different PPO herbicides: S-3100, Fomesafen, Acifluorfen, Lactofen, Flumioxazin, Sulfentrazone, and Saflufenacil. Pooled seed representing 5 unique events was planted in pots in a greenhouse along with hybrid maize seed as a negative control.
(§2) To test for pre-emergence herbicide tolerance, PPO herbicides were applied individually at one of two rates with six reps per treatment as follows: S-3100 (80 or 160 g ai/ha), fomesafen (Reflex®, 840 or 1680 g ai/ha), flumioxazin (Valor® SX, 210 or 420 g ai/ha), sulfentrazone (Spartan® 4L, 840 or 1680 g ai/ha), and saflufenacil (Sharpen®, 200 or 400 g ai/ha). Plants were rated for percentage of crop injury at 20 days after treatment, and maize seed was included as a negative control. […] Negative control maize plants had injury ratings ranging from 17.5% to 94.2%, with the exception of Saflufenacil, which is expected since this herbicide is marketed for used in conventional maize plants. Data are presented in Table 15 with standard error indicated as +/−.

[2] = test system: negative control hybrid maize; test: PPO herbicide pre-emergence injury, negative control maize; type: in vivo; details: 20 days after treatment
Method: as §1, §2

[3] = test system: transgenic Brassica napus plants; test: Dicamba tolerance in R0 Brassica napus, greenhouse; details: R0 plants with one copy with vector backbone or two copies, tolerant = injury 20% or less, 21 days
Method: Brassica napus variety 65037 Restorer line was used for Agrobacterium-mediated transformation and R0 plants were grown in the greenhouse.
Dicamba tolerance was assessed using R0 plants with one copy of transgene with vector backbone or two copies of transgene. Dicamba tolerance was designated as dicamba injury of 20% or less under greenhouse conditions.
Dicamba tolerance was assessed on R0 plants with a one copy of the transgene. Plants were sprayed in the greenhouse with dicamba (Clarity) at 1 lb ae/acre (2× rate), and dicamba tolerance was determined 14 to 21 days later.

[4] = test system: R1 transgenic soybean plants; test: R1 soybean greenhouse dicamba injury; details: dicamba 1120 g ai/ha at V4; rated 10 days after treatment; DMO SEQ ID NO:18
Text: Transgenic soybean plants were generated with two DNA constructs that were identical except for the APG6 CTP. The first DNA construct had APG6 (SEQ ID NO:1) operably linked to DMO (SEQ ID NO:18). The second DNA construct had the optimized APG6 (SEQ ID NO:2) operably linked to DMO (SEQ ID NO:18). Each DNA construct was used to transform A3555 soybean by Agrobacterium mediated transformation methods. Following transformation, R0 transgenic plants containing a single copy of the transgene were identified by PCR assay. Single-copy R0 plants were grown in greenhouse, and R1 seed was harvested. Ten R1 seeds per event for 4 events generated using each of the two DNA constructs and AG3555 seed was planted for evaluation of crop tolerance to post-emergence dicamba treatment under standard greenhouse growth conditions. Dicamba (Clarity) was applied at the V4 stage at 1120 g ai/ha. Crop injury ratings were taken 10 days after the treatment.

[5] = test system: R1 transgenic cotton plants; test: R1 cotton greenhouse dicamba injury; details: dicamba 1120 g ai/ha at V4; rated 9 days after treatment; DMO SEQ ID NO:18
Text: Ten R1 seeds per event from 10 events for each construct and seed from DP393 cotton was planted to evaluate crop tolerance to post-emergence application of dicamba. Dicamba (Clarity) was applied at the V4 stage at 1120 g ai/ha. Crop injury percent ratings were taken 9 days after the treatment.

[6] = test system: transgenic R1 soybean plants; test: PPO herbicide testing of R1 soybean (S-3100, greenhouse); details: for Injury V4 stage / Injury R1 stage: ten days after treatment
Method: Regenerated R0 transgenic plantlets were grown in the greenhouse, selfed, and R1 seed was collected. Transgenic R1 plants were sprayed in the greenhouse with one of three herbicide treatments applied at V4 and R1: (1) 5 grams ai/ha S-3100, (2) 10 grams ai/ha S-3100, or (3) 30 grams ai/ha S-3100. Crop injury ratings were assessed at ten days after treatment.

[7] = test system: R0 transgenic cotton plants; test: S-3100 tolerance of R0 transgenic cotton, greenhouse; details: 20 g ai/ha S-3100 at V2, three days after treatment
Method: Regenerated R0 transgenic plantlets were grown in the greenhouse, and leaf samples taken from the resulting R0 plants were analyzed by PCR to identify plants containing a single copy of an event. Transgenic single-copy R0 plants, each representing a unique event, were sprayed in the greenhouse with the herbicide treatment 20 g ai/ha of S-3100 applied at V2 stage. Additionally, transgenic multi-copy (≥2 copies/plant) were sprayed in the greenhouse with the herbicide treatment 20 g ai/ha of S-3100 applied at V2 stage. Injury ratings were taken at three days after treatment.

[8] = test system: transgenic Brassica napus plants; test: Dicamba tolerance in R1 Brassica napus, greenhouse, three sprays; type: in vivo; details: dicamba 2 lb ae/acre at planting, 1 lb ae/acre at V3, 1 lb ae/acre at first flower
Text: Plants were sprayed with 2 lb ae/acre dicamba (4×) on the day of planting, followed by 1 lb ae/acre dicamba (2×) dicamba at V3 stage, and 1 lb ae/acre dicamba (2×) dicamba at first flower (defined as >90% of plants having bolted and about 25% having at least one open flower). Injury ratings were taken seven days after each spray and expressed as percent injury compared to sprayed controls. For plants containing APG6+DMO, there were 9 progeny total from 2 events with dicamba injury ratings of ≤20% at each of the three rating periods. For plants containing RbcS+DMO, there were 77 plants across 16 events with dicamba tolerance of less than 20% at each of the three rating periods.

[9] = test system: transgenic F1 hybrid maize plants; test: F1 hybrid maize field trial of dicamba injury and yield; type: in vivo
Method: Dicamba tolerance was evaluated in a field trial for the transgenic F1 hybrid plants. The field trial included four treatments at two locations with two replications each. The four treatments were: (1) dicamba (Clarity®) applied at 2 lbs ae/acre (4×) at V2 followed by V4 followed by V8; (2) dicamba applied at 4 lbs at/acre (8×) at V2 followed by V4 followed by V8; (3) dicamba applied at 8 lbs at/acre (16×) at V2 followed by V4 followed by V8; and (4) dicamba applied at 16 lbs at/acre (32×) at V2 followed by V4 followed by V8. Crop injury was rated ten days after treatment and measured as crop injury percent per V-stage (CIPV2, CIPV4, or CIPV8). At the end of the season, grain was harvested and yield measured as bushels/acre. For both CIPV ratings and yield the least significant difference (LSD) at probability of 5% (p=0.05) was calculated.

[10] = dicamba 2 lbs ae/acre (4×) at V2 fb V4 fb V8
[11] = dicamba 4 lbs (8×) at V2 fb V4 fb V8
[12] = dicamba 8 lbs (16×) at V2 fb V4 fb V8
[13] = dicamba 16 lbs (32×) at V2 fb V4 fb V8

C#CCN1C(=O)COc2cc(F)c(N3C(=O)C4=C(CCCC4)C3=O)cc21 [Flumioxazin, flumioxazin]
% Injury PPO H_N10 ([1]; 210 g ai/ha): 1.7% +/− 1.05
% Injury PPO H_N10 ([1]; 420 g ai/ha): 2.5% +/− 1.71
% Injury negative control ([2]; 210 g ai/ha): 30% +/− 6.32
% Injury negative control ([2]; 420 g ai/ha): 60.8% +/− 6.38

CS(=O)(=O)NC(=O)c1cc(Oc2ccc(C(F)(F)F)cc2Cl)ccc1[N+](=O)[O-] [Fomesafen, fomesafen]
% Injury PPO H_N10 ([1]; 840 g ai/ha): 4.2% +/− 1.54
% Injury PPO H_N10 ([1]; 1680 g ai/ha): 5.8% +/− 0.83
% Injury negative control ([2]; 840 g ai/ha): 75.8% +/− 5.83
% Injury negative control ([2]; 1680 g ai/ha): 94.2% +/− 1.54

CC(C)N(C)S(=O)(=O)NC(=O)c1cc(-n2c(=O)cc(C(F)(F)F)n(C)c2=O)c(F)cc1Cl [Saflufenacil, saflufenacil]
% Injury PPO H_N10 ([1]; 200 g ai/ha): 0% +/− 0
% Injury PPO H_N10 ([1]; 400 g ai/ha): 0.8% +/− 0.83
% Injury negative control ([2]; 200 g ai/ha): 0% +/− 0
% Injury negative control ([2]; 400 g ai/ha): 0.8% +/− 0.83

CCOC(=O)COc1ncccc1Oc1cc(-n2c(=O)cc(C(F)(F)F)n(C)c2=O)c(F)cc1Cl [S-3100, ethyl [3-2-chloro-4-fluoro-5-(1-methyl-6-trifluoromethyl-2,4-dioxo-1,2,3,4-tetrahydropyrimidin-3-yl)phenoxy]-2-pyridyloxyl acetate]
% Injury PPO H_N10 ([1]; 80 g ai/ha, +/− standard error): 3.3% +/− 1.67
% Injury PPO H_N10 ([1]; 160 g ai/ha): 4.2% +/− 1.54
% Injury negative control ([2]; 80 g ai/ha, +/− standard error): 19.2% +/− 2.39
% Injury negative control ([2]; 160 g ai/ha): 20.8% +/− 8.31

RbcS (SEQ ID NO: 5): Ps.RbcS-3C chloroplast transit peptide, SEQ ID NO:5 (MASMISSSAVTTVSRASRGQSAAMAPFGGLKSMTGFPVRKVNTDITSITSNGGRVKC; listed as Pisum sativum) [reference compound]
2X Tolerant events ([3]; dicamba 1 lb ae/acre): 8/9
4X Tolerant events ([3]; dicamba 2 lb ae/acre): 7/7

Cc1nn(-c2cc(NS(C)(=O)=O)c(Cl)cc2Cl)c(=O)n1C(F)F [Sulfentrazone, sulfentrazone]
% Injury PPO H_N10 ([1]; 840 g ai/ha): 0% +/− 0
% Injury PPO H_N10 ([1]; 1680 g ai/ha): 0% +/− 0
% Injury negative control ([2]; 840 g ai/ha): 17.5% +/− 11.6
% Injury negative control ([2]; 1680 g ai/ha): 20% +/− 11.11

B1: Optimized APG6: amino-terminal optimized variant of the APG6 CTP, SEQ ID NO:2 (protein)
chain: MASSTTTATAAFSGVVSVGTETRRIYSFSHLQPSAAFPAKPSSFKSLKLKQSARLTRRLDHRPFVVRC
Dicamba Injury, V4 stage [4]: 2.7%
dicamba % Injury, V4 stage [5]: 2.2%

B2: 12G088600TP + H_N10: 12G088600TP CTP operably linked to PPO H_N10, construct for soybean (protein, listed as Gossypium raimondii, listed as Escherichia coli)
chain: MLNIAPSCVLASGISKPVTKMASTENKDDHSSAKRMKTLILFSTRDGQTREIASYLASELKELGIQADVANVHRIEEPQWENYDRVVIGASIRYGHYHSAFQEFVKKHATRLNSMPSAFYSVNLVARKPEKRTPQTNSYARKFLMNSQWRPDRCAVIAGALRYPRYRWYDRFMIKLIMKMSGGETDTRKEVVYTDWEQVANFAREIAHLTDKPTLK
survival for rating at the R1 stage ([6]; S-3100 5, 10 and 30 g ai/ha applied at V4): did not survive
Injury V4 stage ([6]; S-3100 5 g/ha): 82.7%
Injury V4 stage ([6]; S-3100 10 g/ha): 92.7%
Injury V4 stage ([6]; S-3100 30 g/ha): 98.2%

B3: APG6 + H_N10: APG6 CTP operably linked to PPO H_N10, construct for soybean and cotton (protein, listed as Arabidopsis thalinana, listed as Escherichia coli)
chain: MATATTTATAAFSGVVSVGTETRRIYSFSHLQPSAAFPAKPSSFKSLKLKQSARLTRRLDHRPFVVRCMKTLILFSTRDGQTREIASYLASELKELGIQADVANVHRIEEPQWENYDRVVIGASIRYGHYHSAFQEFVKKHATRLNSMPSAFYSVNLVARKPEKRTPQTNSYARKFLMNSQWRPDRCAVIAGALRYPRYRWYDRFMIKLIMKMSGGETDTRKEVVYTDWEQVANFAREIAHLTDKPTLK
Injury R1 stage ([6]; S-3100 5 g/ha): 3%
Injury V4 stage ([6]; S-3100 5 g/ha): 4.2%
Injury R1 stage ([6]; S-3100 10 g/ha): 6.5%
Injury V4 stage ([6]; S-3100 10 g/ha): 7.8%
Injury R1 stage ([6]; S-3100 30 g/ha): 15.7%
Injury V4 stage ([6]; S-3100 30 g/ha): 9.4%
average injury ([7]; 14 multi-copy R0 cotton plants): 10.4%
average injury ([7]; 21 single-copy R0 cotton plants): 26.7%

B4: APG6-DMO: APG6 CTP operably linked to dicamba monooxygenase (SEQ ID NO:20 in Brassica, SEQ ID NO:18 in maize) (protein)
chain: MLTFVRNAWYVAALPEELSEKPLGRTILDTPLALYRQPDGVVAALLDICPHRFAPLSDGILVNGHLQCPYHGLEFDGGGQCVHNPHGNGARPASLNVRSFPVVERDALIWIWPGDPALADPGAIPDFGCRVDPAYRTVGGYGHVDCNYKLLVDNLMDLGHAQYVHRANAQTDAFDRLEREVIVGDGEIQALMKIPGGTPSVLMAKFLRGANTPVDAWNDIRWNKVSAMLNFIAVAPEGTPKEQSIHSRGTHILTPETEASCHYFFGSSRNFGIDDPEMDGVLRSWQAQALVKEDKVVVEAIERRRAYVEANGIRPAMLSCDEAAVRVSREIEKLEQLEAA
events giving plants with dicamba injury of 20% or less at each of three rating periods [8]: 2
plants (progeny) with dicamba injury of 20% or less at each of three rating periods ([8]; rated 7 days after each spray): 9
CIPV4 (crop injury percent) [9, 10]: 2%
CIPV8 (crop injury percent) [9, 10]: 3%
Yield [9, 10]: 231.99 bu/ac
CIPV2 (crop injury percent) ([9]; dicamba 2 lbs ae/acre (4×) at V2 fb V4 fb V8, rated ten days after treatment): 0.75%
CIPV2 (crop injury percent) [9, 11]: 1.5%
CIPV4 (crop injury percent) [9, 11]: 2%
CIPV8 (crop injury percent) [9, 11]: 7.5%
Yield [9, 11]: 230.44 bu/ac
CIPV2 (crop injury percent) [9, 12]: 1.5%
CIPV4 (crop injury percent) [9, 12]: 4%
CIPV8 (crop injury percent) [9, 12]: 11.25%
Yield [9, 12]: 242.37 bu/ac
CIPV2 (crop injury percent) [9, 13]: 2%
CIPV4 (crop injury percent) [9, 13]: 5.75%
CIPV8 (crop injury percent) [9, 13]: 17.5%
Yield [9, 13]: 212.34 bu/ac
